Source: patent publication US7592168B2, “Cephalosporin C acylase mutant and method for preparing 7-ACA using same” (Sandoz AG, priority 2003, dated 2009)

Substrate: [H][C@]12SCC(COC(C)=O)=C(C(=O)O)N1C(=O)[C@H]2NC(=O)CCC[C@@H](N)C(=O)O
Experiment: CPC hydrolysis kinetics (Lineweaver-Burk plot), wild-type CPC acylase AcyII
Format: biochemical, Pseudomonas sp. SE83
Conditions: other: substrate CPC, purified enzyme, 0.1 M Tris-HCl pH 8.0, 37° C.
Procedure: The enzyme activity of CPC acylase mutant to CPC was measured according to the method described by Park et al. with minor modifications as follows (Park, et al., Kor. J. Appl. Microbiol. Biotechnol. 23: 559-564, 1995). A substrate solution was prepared by dissolving CPC (purity 74.2%; CJ Corp., Korea) in 0.1 M Tris-HCl buffer solution (pH 8.0) at a concentration of 20 mg/ml and adjusting pH to 8 with 1 N NaOH. 20 μl of the CPC solution was mixed with 20 μl of the crude enzyme solution prepared above and the reaction mixture was incubated at 37° C. for 5 min. After the reaction, the mixture (200 μl) of 50 mM NaOH and 20% glacial acetic acid (1:2) was added thereto to stop the reaction. 200 μl of the supernatant recovered from the reaction mixture by centrifugation was mixed with 40 μl of 0.5% (w/v) PDAB (p-dimethylaminobenzaldehyde; Sigma, USA) dissolved in a methanol and the reaction mixture was incubated at 37° C. for 10 min. After the reaction, the absorbance of reaction mixture was measured at 415 nm and quantified by comparing with a calibration curve of standard material. At this time, 1 unit has been defined as the amount of enzyme capable to produce 1 μmole of 7-ACA from CPC per minute. Meanwhile, the specific activity of CPC acylase mutant for CPC was determined by measuring the amount of protein remaining in the enzyme solution according to the method described by Bradford (Bradford, M., Anal. Biochem. 72: 248-254, 1976) and representing it as an active unit corresponding to 1 mg of protein. The reactivity of CPC acylase mutant to CPC was determined by the following steps of adding the same amount of protein to a reaction mixture, performing an enzyme reaction for a fixed time, measuring the amount of 7-ACA produced in the reaction mixture, and representing it as a relative value. The end-product inhibition by 7-ACA was determined by adding a protein corresponding to the same active unit to a reaction mixture, performing an enzyme reaction for a fixed time; measuring the amount of 7-ACA produced in the reaction mixture, and representing it as a relative value. […]

B1: Pseudomonas sp. SE83 CPC acylase AcyII, wild type, SEQ ID NO: 2 (alpha-subunit SEQ ID NO: 4, beta-subunit SEQ ID NO: 5) (Pseudomonas sp. SE83) (protein)
chain 1: TMAAKTDREALQAALPPLSGSLSIPGLSAPVRVQRDGWGIPHIKASGEADAYRALGFVHAQDRLFQMELTRRKALGRAAEWLGAEAAEADILVRRLGMEKVCRRDFEALGAEAKDMLRAYVAGVNAFLASGAPLPIEYGLLGAEPEPWEPWHSIAVMRRLGLLMGSVWFKLWRMLALPVVGAANALKLRYDDGGQDLLCIPPGVEAERLEADLAALRPAVDALLKAMGG
chain 2: SNNWAVAPGRTATGRPILAGDPHRVFEIPGMYAQHHLACDRFDMIGLTVPGVPGFPHFAHNGKVAYCVTHAFMDIHDLYLEQFAEDGRTARFGNEFEPVAWRRDRIAVRGGADREFDIVETRHGPVIAGDPLEGAALTLRSVQFAETDLSFDCLTRMPGASTVAQLYDATRGWGLIDHNLVAGDVAGSIGHLVRARVPSRPRENGWLPVPGWSGEHEWRGWIPHEAMPRVIDPPGGLIVTANNRVVADDHPDYLCTDCHPPYRAERIMERLVASPAFAVDDAAAIHADTLSPHVGLLRARLEALGIQGSLPAEELRQTLIAWDGRMDAGSQAASAYNAFRRALTRLVTARSGLEQAIAHPFAAVPPGVSPQGQVWWAVPTLLRNDDAGMLKGWSWDEALSEALSVATQNLTGRGWGEEHRPRFTHPLSAQFPAWAALLNPVSRPIGGDGDTVLANGLVPSAGPEATYGALSRYVFDVGNWDNSRWVVFHGASGHPASPHYADQNAPWSDCAMVPMLYSWDRIAAEAVTSQELVPA
notes: made in house; host or cells: E. coli MC1061
Km: 50 mM | kcat: 0.9 s⁻¹ | kcat/Km: 20 M⁻¹ s⁻¹
